From the supplement of paper PMC12764529 come the findings set out here.

± gives the half width of the 95% confidence interval.

Data set [1] in a line: folding stability dG unfold from chymotrypsin proteolysis; higher = more stable. The method in brief: (§1)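 How resistant each design was to proteolysis was captured as K50, inferred by Bayesian fitting of sequencing counts. Unfolding free energy was then derived relative to a sequence-predicted unfolded-state K50 and a shared folded-state K50, per protease or combined. Digestion used trypsin and chymotrypsin at 11 threefold-diluted concentrations plus a no-protease condition, on mini-proteins under 80 residues without cysteine in a PA-tagged cDNA display construct. Designs were kept only when AlphaFold2 dimer inter-PAE was above 15.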

Data set [2] is described as follows: folding stability dG unfold from trypsin proteolysis; higher = more stable. The essentials: as §1
Data set [3] can be described thus: folding stability dG unfold (combined trypsin and chymotrypsin); higher = more stable. The essentials:
as §1

As for “SAGGSAGGSALEIPFPIKDVKWERNPDGSRTRTFYLKNGWRASLIFNPKNGQMQIDIEPLDSAGGSAGGSAG [r3_438_TrROS]”, the results for the “folding stability dG unfold” value in data set [1], in data set [2] and in data set [3] were 1.57 ± 0.12 kcal/mol, 1.8 ± 0.073 kcal/mol and 1.81 ± 0.17 kcal/mol, respectively.
For “SAGGSAGGSALEVPSNYLVEVRFPNETRLIPVEDLDAFFEAYPDVPWTDIRVLDPKTGKPISAGGSAGGSAG [r3_134_TrMRF]”, in that order: 1.923 ± 0.0098 kcal/mol, 2.47 ± 0.04 kcal/mol and 2.19 ± 0.032 kcal/mol.
With “SAGGSAGGSALKNAPGPDPALLKPRPVLVIPIPKDIPLEEAEALAEIFRKLYPDVPVVLDVEGGSAGGSAGG [r6_299_TrMRF]”, the “folding stability dG unfold” value came out at 1.07 ± 0.072 kcal/mol in data set [1], 0.826 ± 0.046 kcal/mol in data set [2] and 0.971 ± 0.05 kcal/mol in data set [3].
For “SAGGSAGGSALPTSPTYAVVKVPDKYYIVKTKVGDIIFIPDENGIPVPVKVEPFYPIAPEALSAGGSAGGSA [r18_244_TrMRF]”, in that order: -0.515 ± 0.4 kcal/mol, -0.297 ± 0.16 kcal/mol and -0.258 ± 0.18 kcal/mol.
For “SAGGSAGGSAMDAEEIADMIKEILRKQFPNVKITEITVERRPPGNYYVEARVPDGNQRTIPISAGGSAGGSA [r18_423_TrROS]”, in that order: 0.286 ± 0.059 kcal/mol, -0.483 ± 0.15 kcal/mol and 0.115 ± 0.061 kcal/mol.
For “SAGGSAGGSAMEINEIVKETAKKGKNLTITVKLPDGSTVTITVTPDEDVPEDLEVLEVTVKSAGGSAGGSAG [r3_421_JUSTAS]”, in that order: 1.78 ± 0.038 kcal/mol, 0.344 ± 0.05 kcal/mol and 1.4 ± 0.056 kcal/mol.
Take “SAGGSAGGSAMEITITVPKENEEEVLEAAKKALEELGIEEVKVEKLEDGTYKVTARVKPGLSAGGSAGGSAG [r3_335_TrROS_Hall]”: the results for the “folding stability dG unfold” value in data set [1], in data set [2] and in data set [3] were 0.219 ± 0.14 kcal/mol, 0.325 ± 0.12 kcal/mol and 0.361 ± 0.2 kcal/mol, respectively.
For “SAGGSAGGSAMIEISEEELEKLLAETPEEEAKEVKIERIPDIGLINVTIPSGKVIKVKIKESAGGSAGGSAG [r3_291_JUSTAS]”, in that order: 1.43 ± 0.077 kcal/mol, -0.241 ± 0.11 kcal/mol and 0.911 ± 0.086 kcal/mol.
For “SAGGSAGGSAMIETTVSFDPSTGTVTTTTTYTDPNGGYTKSSTTVTPVPTPAPPPPAAPNRVSAGGSAGGSA [r18_361_JUSTAS]”, in that order: 0.582 ± 0.067 kcal/mol, 0.409 ± 0.029 kcal/mol and 0.551 ± 0.094 kcal/mol.
For “SAGGSAGGSAMITTPKGERFEVPLRLTPDGRLEVLVVTDRPDDPEVRELAERLARELAERLSAGGSAGGSAG [r3_163_TrMRF]”, in that order: 0.394 ± 0.17 kcal/mol, 0.506 ± 0.11 kcal/mol and 0.484 ± 0.14 kcal/mol.
As for “SAGGSAGGSAMIVVPVDLVRERLDELVFRGEDGVEYRAEVRVFEVGDRPVAVIDLRPLDEDGSAGGSAGGSA [r18_447_TrMRF]”, the figures for the “folding stability dG unfold” value in data set [1], in data set [2] and in data set [3] were 0.994 ± 0.047 kcal/mol, 0.467 ± 0.025 kcal/mol and 0.823 ± 0.048 kcal/mol, respectively.
For “SAGGSAGGSAMKFPKGAKIEIVVTEDKVYVRIKTPGGKEIEVEMTLEELKKLGFEVEIVEEESAGGSAGGSA [r18_125_TrROS_Hall]”, in that order: 2.27 ± 0.061 kcal/mol, 1.75 ± 0.086 kcal/mol and 2.19 ± 0.15 kcal/mol.
For the sequence “SAGGSAGGSAMKIELTVPPGEEAELEARAKALAEAEGVEVVSVSKSPEGTYTMTVLNTVPPESAGGSAGGSA [r18_351_JUSTAS]”, the “folding stability dG unfold” value was -0.164 ± 0.19 kcal/mol in data set [1], 0.532 ± 0.058 kcal/mol in data set [2] and 0.317 ± 0.098 kcal/mol in data set [3].
In the case of “SAGGSAGGSAMKIVEWNEETGELTIELPDGTKITLKVENGEITEVKVEPLPPVPPDLPELKSAGGSAGGSAG [r3_406_TrROS_Hall]”, the “folding stability dG unfold” value in data set [1] came out at 2.45 ± 0.16 kcal/mol; in data set [2], 0.537 ± 0.15 kcal/mol; in data set [3] it was 2.24 ± 0.24 kcal/mol.
For “SAGGSAGGSAMKIVKIEVVENEDGEKYVKIEIELENGEKIEITLPLEELENMSLEELLKLLKSAGGSAGGSA [r18_129_TrROS_Hall]”, in that order: 3.94 ± 0.17 kcal/mol, 2.94 ± 0.18 kcal/mol and 3.68 ± 0.12 kcal/mol.
For “SAGGSAGGSAMKIVKITTTQLPNGTTKVTVTFSDGSTKTVTIPPNQPGKSAEEVAKKVLLESAGGSAGGSAG [r3_368_JUSTAS]”, in that order: 3.37 ± 0.054 kcal/mol, 1.8 ± 0.055 kcal/mol and 2.96 ± 0.087 kcal/mol.
For “SAGGSAGGSAMKPGEVIEIEITDKETGKKIKAEIVLKDGKLYIKIYNENGELIAEIEIEIKDSAGGSAGGSA [r18_264_TrROS_Hall]”, in that order: 3.4 ± 0.12 kcal/mol, 2.83 ± 0.2 kcal/mol and 3.42 ± 0.14 kcal/mol.
With “SAGGSAGGSAMKTYTLEQIEELLKSLPEEEIEEVKIEEKEGKKVIYVKTKDGREIEIVVEPSAGGSAGGSAG [r3_291_TrROS_Hall]”, the “folding stability dG unfold” value amounted to 3.19 ± 0.052 kcal/mol in data set [1], 2.86 ± 0.2 kcal/mol in data set [2] and 2.98 ± 0.13 kcal/mol in data set [3].
“SAGGSAGGSAMKVALVERPDGSPFLLVFDPDRPGVALLRPLDTDEVEVLPSELLKNLKITASAGGSAGGSAG [r3_451_TrMRF]”: the “folding stability dG unfold” value was 0.68 ± 0.13 kcal/mol in data set [1], -0.509 ± 0.17 kcal/mol in data set [2] and 0.344 ± 0.1 kcal/mol in data set [3].
For “SAGGSAGGSAMKVGEEVEVTVRIKVDGKEYEVKAKATLDEDGNVTLEVEIKAKEGKVEIEIESAGGSAGGSA [r18_428_TrROS_Hall]”, in that order: 2.15 ± 0.14 kcal/mol, 3.42 ± 0.26 kcal/mol and 2.63 ± 0.13 kcal/mol.
For “SAGGSAGGSAMKVITLPENADINKVIEAVEAGSPILVKIVDPKSSKTTDLPLPSKEAVEKLSAGGSAGGSAG [r3_362_JUSTAS]”, in that order: -0.394 ± 0.18 kcal/mol, -0.468 ± 0.17 kcal/mol and -0.33 ± 0.15 kcal/mol.
For “SAGGSAGGSAMKVLVTVTLTSPDGTKTTLTEEADPAELKGVLEAALPWTVETVTVYPAEELLSAGGSAGGSA [r18_107_JUSTAS]”, in that order: 0.509 ± 0.12 kcal/mol, 1.35 ± 0.051 kcal/mol and 1.04 ± 0.089 kcal/mol.
On to “SAGGSAGGSAMKYKVTVTTTPPDGTTTTTPTVVDFKSKEEIEEYVKKKAPKDTKVEVEIEPESAGGSAGGSA [r18_60_JUSTAS]”, for which the figures for the “folding stability dG unfold” value in data set [1], in data set [2] and in data set [3] were 0.0584 ± 0.22 kcal/mol, -0.228 ± 0.085 kcal/mol and 0.0447 ± 0.19 kcal/mol, respectively.
Take “SAGGSAGGSAMKYTVTVTLPNGTTLTLDVGTETEEEAVSETKKLIAEKYPDVKGAKIDLTKESAGGSAGGSA [r18_434_JUSTAS]”: the “folding stability dG unfold” value worked out at 2.52 ± 0.038 kcal/mol in data set [1], 1.88 ± 0.11 kcal/mol in data set [2] and 2.33 ± 0.13 kcal/mol in data set [3].
For “SAGGSAGGSAMLENARPFPIDLPTKYRLRIVLPDGRVLELEYDPKSGVPRLRVVPVEEALKRSAGGSAGGSA [r18_247_TrMRF]”, in that order: 1.59 ± 0.033 kcal/mol, 1.19 ± 0.012 kcal/mol and 1.46 ± 0.036 kcal/mol.
For “SAGGSAGGSAMLTIPVTTPEEARELAEELLRRGYLRVEPTEDGDVTVIHPDGVPTRILVPTESAGGSAGGSA [r18_126_TrMRF]”, in that order: 0.551 ± 0.11 kcal/mol, 0.471 ± 0.043 kcal/mol and 0.558 ± 0.059 kcal/mol.
For “SAGGSAGGSAMLVIRVYFEDTGRVLTLTADSEEEALEAIKRLLPPGAKIKKVEIFEVSEEDLSAGGSAGGSA [r18_350_TrROS_Hall]”, in that order: 4.439 ± 0.041 kcal/mol, 4.08 ± 0.071 kcal/mol and 4.33 ± 0.058 kcal/mol.
For “SAGGSAGGSAMNRYRILLLDPENGKPLVFELPGNMTPEEAKEAAEELAERFGVTVVAIEGFPSAGGSAGGSA [r18_322_TrMRF]”, the “folding stability dG unfold” value in data set [1] came out at 4.362 ± 0.021 kcal/mol; in data set [2], 3.18 ± 0.044 kcal/mol; in data set [3] it was 4.11 ± 0.057 kcal/mol.
Turning to “SAGGSAGGSAMPEEVKLRVVKVKVKEVEVETDENGEKRTRVKAEVVEEREITLPKEELEKLSAGGSAGGSAG [r3_121_TrROS_Hall]”, the entries for the “folding stability dG unfold” value in data set [1], in data set [2] and in data set [3] were 1.04 ± 0.074 kcal/mol, 2.35 ± 0.18 kcal/mol and 1.76 ± 0.14 kcal/mol, respectively.
For “SAGGSAGGSAMPFRVKVPPGSRVLVTRYLPGGLEREEVELSEDEDELVVEAESGVVEVRVLDSAGGSAGGSA [r18_124_TrMRF]”, in that order: 0.969 ± 0.28 kcal/mol, 0.938 ± 0.07 kcal/mol and 0.977 ± 0.21 kcal/mol.
With “SAGGSAGGSAMPIKYLFPKDKSLEDILDEIIKKTGKPKSEIKNIKLEEIDDEEGFYVAYVESAGGSAGGSAG [r3_26_TrMRF]”, the figures for the “folding stability dG unfold” value in data set [1], in data set [2] and in data set [3] were 1.13 ± 0.13 kcal/mol, 1.36 ± 0.092 kcal/mol and 1.36 ± 0.22 kcal/mol, respectively.
For “SAGGSAGGSAMRINIKLPGVETESVEVDPEKGMITARLKFPEGRKVEISFFPDGNVKIHPVSAGGSAGGSAG [r3_348_TrROS]”, in that order: 0.751 ± 0.066 kcal/mol, 1.14 ± 0.05 kcal/mol and 0.898 ± 0.11 kcal/mol.
“SAGGSAGGSAMRLRLKVKPGEKVRIRVERDGKVYEFEVTVEEGADEIEIDLPPGVKRIEIEPSAGGSAGGSA [r18_124_TrROS_Hall]”: the figures for the “folding stability dG unfold” value in data set [1], in data set [2] and in data set [3] were 3.8 ± 0.095 kcal/mol, 2.76 ± 0.21 kcal/mol and 3.62 ± 0.17 kcal/mol, respectively.
In the case of “SAGGSAGGSAMSEEEKKKKKPKLEIKVKVEFTVDENGTVRAKVTFEDGTTLEVEIKLPPELLSAGGSAGGSA [r18_192_TrROS_Hall]”, the “folding stability dG unfold” value in data set [1] worked out at 1.49 ± 0.059 kcal/mol; in data set [2], 1.92 ± 0.094 kcal/mol; in data set [3] it was 1.7 ± 0.11 kcal/mol.
For “SAGGSAGGSAMTLEEKALESEELKKKIEEAPPSTKLITFELPGGEKITFTKNPDGSVVLSPSAGGSAGGSAG [r3_124_JUSTAS]”, in that order: 1.41 ± 0.1 kcal/mol, 0.941 ± 0.051 kcal/mol and 1.2 ± 0.11 kcal/mol.
For “SAGGSAGGSAMTPEEIKKLFPNAKMKPFKGNGKTVIVIELPSGEKIEIVFDDGKPRIIVYKGSAGGSAGGSA [r18_13_TrMRF]”, in that order: 1.3 ± 0.091 kcal/mol, 1.36 ± 0.042 kcal/mol and 1.32 ± 0.13 kcal/mol.
